Measured values: patent US20160272693A1 (ZEALAND PHARMA A S, published 2016)
*1 amine or outer side, *2 acyl side, *3 side chain or, on linkers, in order; H or OH if unused. Bridges are numbered along the chain shown (N, C = ends). [ ]: non-standard residue; d: D form. The star is where a group is joined. C20 diacid = O=C(O)CCCCCCCCCCCCCCCCCCC(=O)*; γGlu = O=C(O)[C@H](CCC(=O)[*:2])N[*:1]; Hyp = O=C(O)[C@@H]1C[C@@H](O)CN1; NMeI = CC[C@H](C)[C@H](NC)C(=O)O; Aad = N[C@@H](CCCC(=O)O)C(=O)O; Orn = NCCC[C@H](N)C(=O)O; Sar = CNCC(=O)O

T1: human amylin receptor 3 (hAMYR3), hCTR2 co-expressed with human receptor activity modifying protein 3 (hRAMP3) (human, UniProt P30988 25-474; O60896 24-148)
T1 sequence (looked up) 1: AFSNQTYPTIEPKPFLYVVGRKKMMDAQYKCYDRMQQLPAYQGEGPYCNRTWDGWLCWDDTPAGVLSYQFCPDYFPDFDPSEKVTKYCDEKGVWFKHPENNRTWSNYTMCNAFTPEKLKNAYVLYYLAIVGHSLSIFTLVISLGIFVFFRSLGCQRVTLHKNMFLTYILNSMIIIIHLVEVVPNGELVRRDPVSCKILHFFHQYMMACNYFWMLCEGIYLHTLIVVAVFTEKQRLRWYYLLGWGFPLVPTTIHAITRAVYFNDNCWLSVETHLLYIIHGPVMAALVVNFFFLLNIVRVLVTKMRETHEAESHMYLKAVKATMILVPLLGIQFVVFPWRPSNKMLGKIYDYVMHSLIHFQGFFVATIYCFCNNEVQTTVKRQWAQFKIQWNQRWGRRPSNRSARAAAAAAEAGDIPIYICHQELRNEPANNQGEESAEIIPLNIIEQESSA
T1 sequence (looked up) 2: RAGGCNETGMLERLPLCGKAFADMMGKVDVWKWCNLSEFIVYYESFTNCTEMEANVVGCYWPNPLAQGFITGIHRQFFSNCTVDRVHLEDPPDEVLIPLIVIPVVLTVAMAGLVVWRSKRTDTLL

B1: [19CD]-isoGlu-R-C( )-GTAT-C( )-ATERLAHFLTRSSF-Gly(Me)-A-Ile(Me)-LSSTEVGS-Aad-T-Hyp-NH2 (Compd. 12) (peptide)
peptide: {C20 diacid}-[γGlu]RCGTATCATERLAHFLTRSSF[Sar]A[NMeI]LSSTEVGS[Aad]T[Hyp]-NH2
modifications: disulfide 3-8
SMILES: CC[C@H](C)[C@@H](C(=O)N[C@@H](CC(C)C)C(=O)N[C@@H](CO)C(=O)N[C@@H](CO)C(=O)N[C@H](C(=O)N[C@@H](CCC(=O)O)C(=O)N[C@H](C(=O)NCC(=O)N[C@@H](CO)C(=O)N[C@@H](CCCC(=O)O)C(=O)N[C@H](C(=O)N1C[C@H](O)C[C@H]1C(N)=O)[C@@H](C)O)C(C)C)[C@@H](C)O)N(C)C(=O)[C@H](C)NC(=O)CN(C)C(=O)[C@H](Cc1ccccc1)NC(=O)[C@H](CO)NC(=O)[C@H](CO)NC(=O)[C@H](CCCNC(=N)N)NC(=O)[C@@H](NC(=O)[C@H](CC(C)C)NC(=O)[C@H](Cc1ccccc1)NC(=O)[C@H](Cc1c[nH]cn1)NC(=O)[C@H](C)NC(=O)[C@H](CC(C)C)NC(=O)[C@H](CCCNC(=N)N)NC(=O)[C@H](CCC(=O)O)NC(=O)[C@@H](NC(=O)[C@H](C)NC(=O)[C@@H]1CSSC[C@H](NC(=O)[C@H](CCCNC(=N)N)NC(=O)CC[C@H](NC(=O)CCCCCCCCCCCCCCCCCCC(=O)O)C(=O)O)C(=O)NCC(=O)N[C@@H]([C@@H](C)O)C(=O)N[C@@H](C)C(=O)N[C@@H]([C@@H](C)O)C(=O)N1)[C@@H](C)O)[C@@H](C)O
B2: [19CD]-isoGlu-R-C( )-QTAT-C( )-ATDRLA-Aad-FLQRF-Gly(Me)-A-Ile(Me)-LSSTEVGSNT-Hyp-NH2 (Compd. 95) (peptide)
peptide: {C20 diacid}-[γGlu]RCQTATCATDRLA[Aad]FLQRF[Sar]A[NMeI]LSSTEVGSNT[Hyp]-NH2
modifications: disulfide 3-8
SMILES: CC[C@H](C)[C@@H](C(=O)N[C@@H](CC(C)C)C(=O)N[C@@H](CO)C(=O)N[C@@H](CO)C(=O)N[C@H](C(=O)N[C@@H](CCC(=O)O)C(=O)N[C@H](C(=O)NCC(=O)N[C@@H](CO)C(=O)N[C@@H](CC(N)=O)C(=O)N[C@H](C(=O)N1C[C@H](O)C[C@H]1C(N)=O)[C@@H](C)O)C(C)C)[C@@H](C)O)N(C)C(=O)[C@H](C)NC(=O)CN(C)C(=O)[C@H](Cc1ccccc1)NC(=O)[C@H](CCCNC(=N)N)NC(=O)[C@H](CCC(N)=O)NC(=O)[C@H](CC(C)C)NC(=O)[C@H](Cc1ccccc1)NC(=O)[C@H](CCCC(=O)O)NC(=O)[C@H](C)NC(=O)[C@H](CC(C)C)NC(=O)[C@H](CCCNC(=N)N)NC(=O)[C@H](CC(=O)O)NC(=O)[C@@H](NC(=O)[C@H](C)NC(=O)[C@@H]1CSSC[C@H](NC(=O)[C@H](CCCNC(=N)N)NC(=O)CC[C@H](NC(=O)CCCCCCCCCCCCCCCCCCC(=O)O)C(=O)O)C(=O)N[C@@H](CCC(N)=O)C(=O)N[C@@H]([C@@H](C)O)C(=O)N[C@@H](C)C(=O)N[C@@H]([C@@H](C)O)C(=O)N1)[C@@H](C)O
B3: [19CD]-isoGlu-R-C( )-GTAT-C( )-ATERLAHFLTRSSF-Gly(Me)-A-Ile(Me)-LSSTEVGS-Orn-T-Hyp-NH2 (Compd. 11) (peptide)
peptide: {C20 diacid}-[γGlu]RCGTATCATERLAHFLTRSSF[Sar]A[NMeI]LSSTEVGS[Orn]T[Hyp]-NH2
modifications: disulfide 3-8
SMILES: CC[C@H](C)[C@@H](C(=O)N[C@@H](CC(C)C)C(=O)N[C@@H](CO)C(=O)N[C@@H](CO)C(=O)N[C@H](C(=O)N[C@@H](CCC(=O)O)C(=O)N[C@H](C(=O)NCC(=O)N[C@@H](CO)C(=O)N[C@@H](CCCN)C(=O)N[C@H](C(=O)N1C[C@H](O)C[C@H]1C(N)=O)[C@@H](C)O)C(C)C)[C@@H](C)O)N(C)C(=O)[C@H](C)NC(=O)CN(C)C(=O)[C@H](Cc1ccccc1)NC(=O)[C@H](CO)NC(=O)[C@H](CO)NC(=O)[C@H](CCCNC(=N)N)NC(=O)[C@@H](NC(=O)[C@H](CC(C)C)NC(=O)[C@H](Cc1ccccc1)NC(=O)[C@H](Cc1c[nH]cn1)NC(=O)[C@H](C)NC(=O)[C@H](CC(C)C)NC(=O)[C@H](CCCNC(=N)N)NC(=O)[C@H](CCC(=O)O)NC(=O)[C@@H](NC(=O)[C@H](C)NC(=O)[C@@H]1CSSC[C@H](NC(=O)[C@H](CCCNC(=N)N)NC(=O)CC[C@H](NC(=O)CCCCCCCCCCCCCCCCCCC(=O)O)C(=O)O)C(=O)NCC(=O)N[C@@H]([C@@H](C)O)C(=O)N[C@@H](C)C(=O)N[C@@H]([C@@H](C)O)C(=O)N1)[C@@H](C)O)[C@@H](C)O
B4: [19CD]-isoGlu-R-C( )-QTAT-C( )-ATERLA-Aad-FLQRSSF-Gly(Me)-A-Ile(Me)-LSSTEVGSNTP-NH2 (Compd. 93) (peptide)
peptide: {C20 diacid}-[γGlu]RCQTATCATERLA[Aad]FLQRSSF[Sar]A[NMeI]LSSTEVGSNTP-NH2
modifications: disulfide 3-8
SMILES: CC[C@H](C)[C@@H](C(=O)N[C@@H](CC(C)C)C(=O)N[C@@H](CO)C(=O)N[C@@H](CO)C(=O)N[C@H](C(=O)N[C@@H](CCC(=O)O)C(=O)N[C@H](C(=O)NCC(=O)N[C@@H](CO)C(=O)N[C@@H](CC(N)=O)C(=O)N[C@H](C(=O)N1CCC[C@H]1C(N)=O)[C@@H](C)O)C(C)C)[C@@H](C)O)N(C)C(=O)[C@H](C)NC(=O)CN(C)C(=O)[C@H](Cc1ccccc1)NC(=O)[C@H](CO)NC(=O)[C@H](CO)NC(=O)[C@H](CCCNC(=N)N)NC(=O)[C@H](CCC(N)=O)NC(=O)[C@H](CC(C)C)NC(=O)[C@H](Cc1ccccc1)NC(=O)[C@H](CCCC(=O)O)NC(=O)[C@H](C)NC(=O)[C@H](CC(C)C)NC(=O)[C@H](CCCNC(=N)N)NC(=O)[C@H](CCC(=O)O)NC(=O)[C@@H](NC(=O)[C@H](C)NC(=O)[C@@H]1CSSC[C@H](NC(=O)[C@H](CCCNC(=N)N)NC(=O)CC[C@H](NC(=O)CCCCCCCCCCCCCCCCCCC(=O)O)C(=O)O)C(=O)N[C@@H](CCC(N)=O)C(=O)N[C@@H]([C@@H](C)O)C(=O)N[C@@H](C)C(=O)N[C@@H]([C@@H](C)O)C(=O)N1)[C@@H](C)O
B5: [19CD]-isoGlu-R-C( )-NTAT-C( )-ATQRLADFLHRSSF-Gly(Me)-A-Ile(Me)-LSSTEVGSETP-NH2 (Compd. 1) (peptide)
peptide: {C20 diacid-γGlu}-RCNTATCATQRLADFLHRSSF[Sar]A[NMeI]LSSTEVGSETP-NH2
modifications: disulfide 2-7
SMILES: CC[C@H](C)[C@@H](C(=O)N[C@@H](CC(C)C)C(=O)N[C@@H](CO)C(=O)N[C@@H](CO)C(=O)N[C@H](C(=O)N[C@@H](CCC(=O)O)C(=O)N[C@H](C(=O)NCC(=O)N[C@@H](CO)C(=O)N[C@@H](CCC(=O)O)C(=O)N[C@H](C(=O)N1CCC[C@H]1C(N)=O)[C@@H](C)O)C(C)C)[C@@H](C)O)N(C)C(=O)[C@H](C)NC(=O)CN(C)C(=O)[C@H](Cc1ccccc1)NC(=O)[C@H](CO)NC(=O)[C@H](CO)NC(=O)[C@H](CCCNC(=N)N)NC(=O)[C@H](Cc1c[nH]cn1)NC(=O)[C@H](CC(C)C)NC(=O)[C@H](Cc1ccccc1)NC(=O)[C@H](CC(=O)O)NC(=O)[C@H](C)NC(=O)[C@H](CC(C)C)NC(=O)[C@H](CCCNC(=N)N)NC(=O)[C@H](CCC(N)=O)NC(=O)[C@@H](NC(=O)[C@H](C)NC(=O)[C@@H]1CSSC[C@H](NC(=O)[C@H](CCCNC(=N)N)NC(=O)CC[C@H](NC(=O)CCCCCCCCCCCCCCCCCCC(=O)O)C(=O)O)C(=O)N[C@@H](CC(N)=O)C(=O)N[C@@H]([C@@H](C)O)C(=O)N[C@@H](C)C(=O)N[C@@H]([C@@H](C)O)C(=O)N1)[C@@H](C)O
B6: [19CD]-isoGlu-R-C( )-QTAT-C( )-ATERLAHFLQRF-Gly(Me)-A-Ile(Me)-LSSTEVGSNTP-NH2 (Compd. 96) (peptide)
peptide: {C20 diacid-γGlu}-RCQTATCATERLAHFLQRF[Sar]A[NMeI]LSSTEVGSNTP-NH2
modifications: disulfide 2-7
SMILES: CC[C@H](C)[C@@H](C(=O)N[C@@H](CC(C)C)C(=O)N[C@@H](CO)C(=O)N[C@@H](CO)C(=O)N[C@H](C(=O)N[C@@H](CCC(=O)O)C(=O)N[C@H](C(=O)NCC(=O)N[C@@H](CO)C(=O)N[C@@H](CC(N)=O)C(=O)N[C@H](C(=O)N1CCC[C@H]1C(N)=O)[C@@H](C)O)C(C)C)[C@@H](C)O)N(C)C(=O)[C@H](C)NC(=O)CN(C)C(=O)[C@H](Cc1ccccc1)NC(=O)[C@H](CCCNC(=N)N)NC(=O)[C@H](CCC(N)=O)NC(=O)[C@H](CC(C)C)NC(=O)[C@H](Cc1ccccc1)NC(=O)[C@H](Cc1c[nH]cn1)NC(=O)[C@H](C)NC(=O)[C@H](CC(C)C)NC(=O)[C@H](CCCNC(=N)N)NC(=O)[C@H](CCC(=O)O)NC(=O)[C@@H](NC(=O)[C@H](C)NC(=O)[C@@H]1CSSC[C@H](NC(=O)[C@H](CCCNC(=N)N)NC(=O)CC[C@H](NC(=O)CCCCCCCCCCCCCCCCCCC(=O)O)C(=O)O)C(=O)N[C@@H](CCC(N)=O)C(=O)N[C@@H]([C@@H](C)O)C(=O)N[C@@H](C)C(=O)N[C@@H]([C@@H](C)O)C(=O)N1)[C@@H](C)O
B7: [19CD]-isoGlu-R-C( )-GTAT-C( )-ATERLAHFLTRSSF-Gly(Me)-A-Ile(Me)-LSSTEVGSFT-Hyp-NH2 (Compd. 10) (peptide)
peptide: {C20 diacid}-[γGlu]RCGTATCATERLAHFLTRSSF[Sar]A[NMeI]LSSTEVGSFT[Hyp]-NH2
modifications: disulfide 3-8
SMILES: CC[C@H](C)[C@@H](C(=O)N[C@@H](CC(C)C)C(=O)N[C@@H](CO)C(=O)N[C@@H](CO)C(=O)N[C@H](C(=O)N[C@@H](CCC(=O)O)C(=O)N[C@H](C(=O)NCC(=O)N[C@@H](CO)C(=O)N[C@@H](Cc1ccccc1)C(=O)N[C@H](C(=O)N1C[C@H](O)C[C@H]1C(N)=O)[C@@H](C)O)C(C)C)[C@@H](C)O)N(C)C(=O)[C@H](C)NC(=O)CN(C)C(=O)[C@H](Cc1ccccc1)NC(=O)[C@H](CO)NC(=O)[C@H](CO)NC(=O)[C@H](CCCNC(=N)N)NC(=O)[C@@H](NC(=O)[C@H](CC(C)C)NC(=O)[C@H](Cc1ccccc1)NC(=O)[C@H](Cc1c[nH]cn1)NC(=O)[C@H](C)NC(=O)[C@H](CC(C)C)NC(=O)[C@H](CCCNC(=N)N)NC(=O)[C@H](CCC(=O)O)NC(=O)[C@@H](NC(=O)[C@H](C)NC(=O)[C@@H]1CSSC[C@H](NC(=O)[C@H](CCCNC(=N)N)NC(=O)CC[C@H](NC(=O)CCCCCCCCCCCCCCCCCCC(=O)O)C(=O)O)C(=O)NCC(=O)N[C@@H]([C@@H](C)O)C(=O)N[C@@H](C)C(=O)N[C@@H]([C@@H](C)O)C(=O)N1)[C@@H](C)O)[C@@H](C)O

Target: T1, human amylin receptor 3 (hAMYR3), hCTR2 …
Assay: cell-based or functional assay

Row | Binder | hAMYR3 EC50 (nM); cAMP induction [nM]
1 | B1 | 0.25
2 | B2 | 0.2
3 | B3 | 0.2
4 | B4 | 0.43
5 | B5 | 0.23
6 | B6 | 0.28
7 | B7 | 0.35
